Source: WO1989007452A1

Molecular target: Campath-1 antigen (partially purified, obtained from a glycolipid extract from human spleen) (human) (UniProt P31358)
Assay: direct binding ELISA on partially purified Campath-1 antigen coated on microtitre wells; detected with biotin-labelled anti-rat IgG2b; antibody concentration at 50% binding

RaVHCAMP-RaIgG2B (cloned rat heavy chain variable domain of YTH 34.5HL on rat IgG2b constant domains, with rat kappa light chain) (from UniProt P20761 1-333) (antibody)
EC50: 1.01 µg/mL
